From CN116199778A (SHANGHAI JUNSHI BIOSCIENCES CO LTD; JUNMENG BIOSCIENCES CO …, dated 2023)

T1: 含有His标签的鼠4-1BB (mouse 4-1BB with His tag, Sino Biological 50811-M08H) (mouse, UniProt P20334 24-187)
T1 construct: Bought protein; Coated on the ELISA plate at 1.0 ug/mL; not shown: His tag
T1 sequence (looked up): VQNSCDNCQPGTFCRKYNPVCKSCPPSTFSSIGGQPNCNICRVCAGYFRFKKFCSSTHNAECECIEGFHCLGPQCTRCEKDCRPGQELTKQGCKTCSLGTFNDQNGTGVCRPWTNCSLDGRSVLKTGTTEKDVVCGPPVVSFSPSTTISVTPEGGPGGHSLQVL


Columns and labels:
[1] = target: 4-1BB on the surface of Jurkat NFKB 4-1BB cells (UniProt Q07011 24-255, limits assumed); assay: cell-based or functional assay
[2] = target: T1, 含有His标签的鼠4-1BB (mouse 4-1BB with His …); assay: ELISA, His-tagged mouse 4-1BB coated at 1.0 ug/mL, antibody titrated, anti-human IgG4 Fc HRP detection

Chain of 4-1BB on the surface of Jurkat NFKB 4-1BB cells (Q07011 24-255 limits assumed): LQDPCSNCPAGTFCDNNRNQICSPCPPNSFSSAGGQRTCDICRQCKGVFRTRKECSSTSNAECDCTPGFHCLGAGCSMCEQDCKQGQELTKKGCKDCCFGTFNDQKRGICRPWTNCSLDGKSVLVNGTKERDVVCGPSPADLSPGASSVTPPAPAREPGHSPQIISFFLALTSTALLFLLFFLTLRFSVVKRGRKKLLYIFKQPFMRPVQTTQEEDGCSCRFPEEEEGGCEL

Binder	EC50, luciferase reporter (RLU), Raji / Jurkat NFKB 4-1BB two-cell system [1] [µg/mL]	EC50, luciferase reporter (RLU), Raji / Jurkat NFKB (4-1BB low expression) two-cell system [1] [µg/mL]	EC50, luciferase reporter (RLU), THP-1 / Jurkat NFKB 4-1BB two-cell system [1] [µg/mL]	binding result [2]
JS011-phage3 (antibody, V domains shown) VH: not shown VL: ELELTQPPSVSVSPGQTASITCSADKLGDKYASWYQQKPGQSPVLVLYEDSKRPSGIPERISGSNSGNTATLTIRGTQPMDEADYYCQTWDTNTVLFGGGTRLTVL	9.45	9.45	0.00664	–
JS011-phage6 (antibody, V domains shown) VH: QVQLVQSGAEVKKPGASVKVSCKASGYTFTGQYIHWARQAPGQGLEWMGWINPNSGGTNYAQKFQGRVTMTRDTSISTAYMELSRLRSDDTAVYYCARDKAGADYWGQGTLVTVSS VL: ELALTQPPSVSGSPGQSITISCTGTSSDIGGYDYVSWYQQYPGKAPKLMISGVSNRPSGVSNRFSGSKSGNTASLIISGLQAEDEGDYYCSSYTSRSTRWVFGGGTKLTVL	2.71	–	0.283	no binding (tested: 1μg/ml起始)
Urelumab (antibody, V domains shown) VH: QVQLQQWGAGLLKPSETLSLTCAVYGGSFSGYYWSWIRQSPEKGLEWIGEINHGGYVTYNPSLESRVTISVDTSKNQFSLKLSSVTAADTAVYYCARDYGPGNYDWYFDLWGRGTLVTVSS VL: EIVLTQSPATLSLSPGERATLSCRASQSVSSYLAWYQQKPGQAPRLLIYDASNRATGIPARFSGSGSGTDFTLTISSLEPEDFAVYYCQQRSNWPPALTFGGGTKVEIK	7.24	86	219	–
